According to patent US20240398951A1 (WISTAR INSTITUTE OF ANATOMY AND BIOLOGY, published 2024):

Target: T1, human follicle stimulating hormone receptor (FSHR) (human, UniProt P23945 18-695)
T1 sequence (looked up): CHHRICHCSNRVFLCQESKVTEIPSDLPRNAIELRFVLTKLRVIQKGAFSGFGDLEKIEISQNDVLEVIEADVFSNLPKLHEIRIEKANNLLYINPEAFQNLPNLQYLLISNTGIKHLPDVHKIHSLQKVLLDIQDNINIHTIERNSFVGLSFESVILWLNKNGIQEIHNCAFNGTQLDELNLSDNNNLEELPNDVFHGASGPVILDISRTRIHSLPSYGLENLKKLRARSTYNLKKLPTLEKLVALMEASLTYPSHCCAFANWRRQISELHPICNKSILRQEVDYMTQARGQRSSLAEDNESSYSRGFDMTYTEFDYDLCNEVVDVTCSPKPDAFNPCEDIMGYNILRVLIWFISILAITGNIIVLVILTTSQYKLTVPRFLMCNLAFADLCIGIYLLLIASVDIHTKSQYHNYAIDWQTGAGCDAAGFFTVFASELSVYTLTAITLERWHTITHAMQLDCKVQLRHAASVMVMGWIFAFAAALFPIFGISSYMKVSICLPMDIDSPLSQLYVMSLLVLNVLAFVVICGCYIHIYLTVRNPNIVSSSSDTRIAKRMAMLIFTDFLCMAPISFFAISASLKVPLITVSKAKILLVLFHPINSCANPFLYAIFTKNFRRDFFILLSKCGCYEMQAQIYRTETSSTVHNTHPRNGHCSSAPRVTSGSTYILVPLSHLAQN
Experiment: cell-based or functional assay

B1: D2AP11-TCE (FSHRxCD3 DNA encoded bispecific T cell engager) (bispecific antibody)
chain: DIQMTQSPSSLSASVGDRVTISCRASESVDNYGISFLNWFQQKPGKAPKLLIYAASNQRSGVPSRFSGSGSGTDFTLTISSLQPEDFATYFCQQSKEVPWTFGQGTKVEIKRGGGGSGGGGSGGGGSEVQLVESGGGLVQPGGSLRLSCSFSGFSLSTSGMGVGWIRQAPGKGLEWVAHIWWDDDKRYNPALKSRFTLSVDRSKNTLYLQMNSLRAEDTATYYCVQINYGNYRFDNWGHGTLVTVSSGGGGSEVQLVESGGGLVQPGGSLRLSCAASGYSFTGYTMNWVRQAPGKGLEWVALINPYKGVSTYNQKFKDRFTISVDKSKNTAYLQMNSLRAEDTAVYYCARSGYYGDSDWYFDVWGQGTLVTVSSGGGGSGGGGSGGGGSDIQMTQSPSSLSASVGDRVTITCRASQDIRNYLNWYQQKPGKAPKLLIYYTSRLESGVPSRFSGSGSGTDYTLTISSLQPEDFATYYCQQGNTLPWTFGQGTKVEIKSS
- EC50 of dose dependent killing of OVCAR3 cells (xCELLigence, human PBMCs/T cells): 0.0159 µg/mL
- EC50 of dose dependent killing of OVISE-FSHR cells (xCELLigence, human PBMCs/T cells): 0.0247 µg/mL
- EC50 of killing of OVCAR4 cells in presence of human PBMCs (xCELLigence): 0.0113 µg/mL
- potency of killing of OVCAR4 cells compared to the anti-FSHR ab D2AP11: ~1000 fold
